Measurements taken from the Human Domainome abundance scans (Beltran et al. 2025).
± gives the uncertainty stated by the source.

B1: Zinc finger homeobox protein 3, residues 2643 to 2698; numbered along this chain, Q15911 (parent)
chain: RLRTTITPEQLEILYQKYLLDSNPTRKMLDHIAHEVGLKKRVVQVWFQNTRARERK

Variants of: B1
Assay: abundance fitness (aPCA) (normalised: wild type 0, dead -1); higher = more abundant; growth selection in yeast, the domain comes from the species named
Details: Homo sapiens

Row | Variant | abundance fitness
1 | T4V | -0.106 ± 0.092
2 | T4Y | -0.254 ± 0.18
3 | T4W | -0.423 ± 0.11
4 | V36N | -0.761 ± 0.25
5 | V36R | -0.82 ± 0.11
6 | V36F | -0.568 ± 0.15
7 | V36G | -0.732 ± 0.1
8 | E35Y | -0.556 ± 0.14
9 | E35K | -0.356 ± 0.15
10 | A52N | 0.062 ± 0.14
11 | A52W | -0.335 ± 0.097
12 | A52C | -0.209 ± 0.12
13 | A52K | 0.035 ± 0.14
14 | R51Y | 0.073 ± 0.17
15 | R51H | 0.164 ± 0.19
16 | R51W | -0.135 ± 0.11
17 | R51C | -0.044 ± 0.11
18 | R1Y | 0.054 ± 0.32
19 | R1M | 0.23 ± 0.35
20 | R1V | 0.297 ± 0.19
21 | E54G | -0.305 ± 0.088
22 | E54Q | -0.495 ± 0.11
23 | E54I | -0.197 ± 0.1

Row | Variant | abundance fitness
24 | E54Y | -0.438 ± 0.11
25 | I13V | 0.057 ± 0.088
26 | I13P | -0.951 ± 0.17
27 | I13S | -0.184 ± 0.084
28 | I13M | -0.253 ± 0.13
29 | P8L | 0.991 ± 0.1
30 | P8C | 0.475 ± 0.15
31 | P8S | -0.09 ± 0.1
32 | P8G | 0.193 ± 0.079
33 | T5R | -0.498 ± 0.096
34 | T5W | -0.192 ± 0.15
35 | T5Q | 0.17 ± 0.15
36 | T5S | -0.25 ± 0.12
37 | W46S | -0.867 ± 0.14
38 | R41P | -0.144 ± 0.23
39 | R41M | -0.078 ± 0.18
40 | R41S | 0.411 ± 0.1
41 | R41G | 0.353 ± 0.079
42 | K27R | -0.444 ± 0.078
43 | L14I | -0.951 ± 0.27
44 | V42N | -0.02 ± 0.14
45 | V42P | -0.932 ± 0.16
46 | V42K | 0.16 ± 0.15

Row | Variant | abundance fitness
47 | E9Q | -0.038 ± 0.1
48 | R26L | 0.266 ± 0.081
49 | R26E | 0.419 ± 0.096
50 | I6P | -0.182 ± 0.083
51 | I6S | -0.648 ± 0.081
52 | Q44M | -0.164 ± 0.1
53 | Q44R | -0.331 ± 0.094
54 | Q44W | -0.669 ± 0.14
55 | K40W | 0.212 ± 0.11
56 | K40Y | 0.16 ± 0.18
57 | K40C | -0.195 ± 0.14
58 | K40T | 0.355 ± 0.1
59 | L2E | 0.17 ± 0.15
60 | L2D | 0.655 ± 0.14
61 | L2N | 0.232 ± 0.21
62 | K39L | -0.324 ± 0.1
63 | K39M | 0.13 ± 0.11
64 | Q48H | -0.108 ± 0.2
65 | Q48I | -0.687 ± 0.32
66 | H31E | 0.265 ± 0.1
67 | H31P | -0.836 ± 0.19
68 | P24W | -0.165 ± 0.088
69 | R53M | -0.132 ± 0.098

Row | Variant | abundance fitness
70 | R3N | 0.173 ± 0.17
71 | R3S | 0.43 ± 0.094
72 | R3H | 0.199 ± 0.15
73 | R3Q | 0.353 ± 0.13
74 | R3C | 0.216 ± 0.11
75 | R3T | 0.435 ± 0.12
76 | Q10F | -0.959 ± 0.095
77 | Q10T | -0.296 ± 0.076
78 | Q10G | -0.854 ± 0.094
79 | Q10M | -0.411 ± 0.09
80 | Y15V | -0.123 ± 0.081
81 | Y15R | 0.032 ± 0.074
82 | V43C | -0.345 ± 0.15
83 | V43W | -1.07 ± 0.18
84 | V43F | -0.815 ± 0.28
85 | V43N | -0.64 ± 0.2
86 | A33V | -0.492 ± 0.084
87 | A33Y | -0.822 ± 0.11
88 | A33M | -0.832 ± 0.14
89 | N23G | -0.276 ± 0.091
90 | N23R | -0.118 ± 0.087
91 | N23F | 0.149 ± 0.18
92 | N23H | -0.354 ± 0.26

Row | Variant | abundance fitness
93 | N23W | -0.155 ± 0.11
94 | L38W | -0.746 ± 0.11
95 | L38C | -0.329 ± 0.14
96 | L38N | -1.02 ± 0.24
97 | L38F | -0.819 ± 0.22
98 | S22C | -0.136 ± 0.11
99 | S22I | -0.589 ± 0.15
100 | S22L | -0.643 ± 0.1
101 | N49W | -0.68 ± 0.12
102 | F47S | -0.946 ± 0.14
103 | F47W | -0.106 ± 0.095
104 | F47I | -1.01 ± 0.25
105 | E12Q | -0.049 ± 0.13
106 | D21I | -0.533 ± 0.21
107 | D21S | -0.417 ± 0.11
108 | D21E | -0.008 ± 0.14
109 | K17W | -0.056 ± 0.095
110 | K17A | -0.08 ± 0.093
111 | K17P | -1.05 ± 0.21
112 | K17Y | -0.096 ± 0.26
113 | T50E | 0.342 ± 0.11
114 | T50M | 0.092 ± 0.13
115 | T50C | -0.078 ± 0.11

Row | Variant | abundance fitness
116 | T50P | -0.6 ± 0.12
117 | L29S | -0.488 ± 0.091
118 | L29M | 0.028 ± 0.12
119 | L11H | 0.028 ± 0.13
120 | L11E | 0.026 ± 0.11
121 | L11W | -0.11 ± 0.097
122 | L11S | 0.022 ± 0.09
123 | L11I | -0.224 ± 0.19
124 | R55S | 0.347 ± 0.094
125 | R55V | 0.282 ± 0.082
126 | R55W | 0.017 ± 0.1
127 | R55Y | 0.113 ± 0.14
128 | R55C | 0.263 ± 0.099
129 | G37N | -0.306 ± 0.13
130 | G37W | -0.92 ± 0.11
131 | L20N | -0.27 ± 0.14
132 | L20D | -0.226 ± 0.16
133 | L20P | -1.08 ± 0.17
134 | I32F | -0.108 ± 0.14
135 | I32T | -0.274 ± 0.1
136 | I32W | -0.129 ± 0.11
137 | V45Q | -0.016 ± 0.11
138 | V45M | -0.005 ± 0.1

Row | Variant | abundance fitness
139 | V45Y | -0.263 ± 0.14
140 | V45F | -0.028 ± 0.15
141 | T25Y | -0.908 ± 0.32
142 | T25I | -0.502 ± 0.14
143 | T25P | -0.145 ± 0.12
144 | Q16K | -0.106 ± 0.13
145 | D30G | -0.073 ± 0.077
146 | D30Q | 0.1 ± 0.14
147 | D30I | -0.071 ± 0.14
148 | D30Y | -0.269 ± 0.14
149 | D30R | -0.124 ± 0.081
150 | Y18F | 0.251 ± 0.17
151 | Y18L | -0.552 ± 0.12
152 | Y18G | -0.899 ± 0.093
153 | Y18E | -0.948 ± 0.19
154 | Y18K | -0.662 ± 0.22
155 | L19V | -0.12 ± 0.11
156 | L19H | -0.14 ± 0.15
157 | L19G | -0.175 ± 0.078
158 | L19E | -0.254 ± 0.14
